We go through eight molecules from patent publication US20170052184A1 (published 2017).

The chains are these.
T1: HCV Core1-169 recombinant antigen (hepatitis C virus (HCV-1), UniProt P26664 1-169)
T1 sequence: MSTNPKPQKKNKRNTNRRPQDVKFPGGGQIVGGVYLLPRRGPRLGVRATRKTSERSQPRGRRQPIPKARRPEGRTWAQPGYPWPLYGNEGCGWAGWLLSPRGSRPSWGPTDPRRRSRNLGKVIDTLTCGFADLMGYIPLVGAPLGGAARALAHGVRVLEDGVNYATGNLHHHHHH

T2: C113T110N biotin labeled HCV core peptide (Hepatitis C virus, also: biotin label, position not given here)
T2 peptide: RGSRPSWGPND

T3: C113WT biotin labeled HCV core peptide (Hepatitis C virus, also: biotin label, position not given here)
T3 peptide: RGSRPSWGPTD

B1: 208A-207-271 monoclonal antibody (antibody, V domains shown)
VH: QGQLQQPGAEFVKPGASLKLSCRASGYTFTSYWIHWVKQRPGQGLEWIGEIDPSDSYINQNQKFRGKATLTVDKSSSTAYMELSGLTSEDSAVYYCARHYYGVLDSWGQGTTLTVSS
VL: DIVLTQSPATLSVTPGDRVSLSCRASQRIYNYLHWYQQKSHESPRLLTKYASQSISGIPSRFSGSGSGTDFILTINSVETEDFGMYFCQQSNSWPLTFGAGTKLELRR
B2: 208B-395-334 monoclonal antibody (antibody, V domains shown)
VH: QVQLQQSGAGLAKPGASVKMSCKASGYTFTANKMHWTKQRPGQGLEWIGYIDPSSGYTQYNHKIQDKATLTADTSSSTAYMQLSSLTFEDSAVYYCTNFAYWGQGTLVTVSA
VL: B1 VL with T48I
B3: 208B-612-226 monoclonal antibody (antibody, V domains shown)
VH: EVQLQQSGPELVKPGASVKMSCKASGYRFTSYVMHWVRQKPGQGLEWIGYIDPHNDDTKYSEKFRGKATLTSDKSSTTAYMELSSLTSEDSAVYYCVRYSYDRDYSPMDYWGQGTSVTVSS
VL: QIVLTQSPTLMSASPGEKVTMTCSASSTVTYIYWYQQKPGSSPRLWMYDTFNLVSGVPARFSGSRSGTSYFLTISSMEGEDAATYYCQQYSDSPYTFGGGTKLEIKR
B4: HCV 208A-293 monoclonal antibody (antibody, V domains shown)
VH: EVQLQQSGPELVKPGASVKISCKASGFTFTEYAMHWMKQSHGKSLEWIGGINPTNGDAIYNQKFKDKAKLTVDRSSSTAYMELRSLTSDDSALFYCARRELDYFPSWGQGTTLTVSS
VL: DIVLTQSPASLIVSLGQRATISCRASQSVSTSRFSYVHWIQQKPGQPPKLLIKYASNLESGVPVRFSGSGSGTDFILNIHPVEEEDTATYFCQHSWEFPFTFGSGTKLEIKR
B5: HCV 208B-1096 monoclonal antibody (antibody, V domains shown)
VH: B2 VH with T37A, Q59E, D66Y, S85T
VL: DIVMTQTPLTLSVTIGQPASISCKSSQSLLFTNGKTYLNWFLQRPGQSPKRLIYLLSKLDSGVPDRFSGSGSGTDFTLKISRVEAEDLGVYYCLQSTYFPLTFGAGTKLELKR
B6: HCV 208A-692 monoclonal antibody (antibody, V domains shown)
VH: QGQMQQSGAELAKPGASVKLSCKTSGFTFSSSYISWLKQKPGQSLEWIAWIFAGTGNTNYNQKFTDKAQLTVDTSSSTAYMQLSSLTTEDSAIYYCAISGTGFTYWGQGTLVTVSA
VL: EVLMTQSPLSLPVSLGDQASISCRSSQSLEHSNGNTYLEWFLQRPGQPPKLLIYKVSSRFSGVPDRFSGSGSGTDFTLKISRVEAEDLGVYYCFQGSHVPFTFGSGTKLAIKR
B7: HCV 208A-557 monoclonal antibody (antibody, V domains shown)
VH: B6 VH with A12V, F52Y
VL: DIALTQSPASLAVSLGQRATISCRASQSVSTSRYSYMHWYQQKPGQPPELLIKYASNLESGVPARFSGSGSGTDFTLNIHPVGEEDTATYYCQHSWDFPFTFGSGTKLEIKR
B8: Neo4 monoclonal antibody (antibody, V domains shown)
VH: QIQLKESGPAVIKPSQSLSLTCIVSGFSITSSVYCWQWIRQPPGKGLEWMGRICYDGSVDYSPSITSRGTISRDTSLNKVFFQLSSVTNEDTAMYYCSRENHIDYYDTTYPSFDVWGAGTTVTVSS
VL: DIVLTQSPASLIVSLGQRATISCRASKSVNEYGYTYMHWYQQKPGLPPKLLIYLASNLDSGVPARFSGSGSGTDFTLNIHPVEEEDAATYYCQHSRELPYTFGGGTKLEIKR
notes: also called HCV Neo4

Changes are numbered by the printed parent chain. Ends that are not written are not given here.

One assay addresses T1, HCV Core1-169 recombinant antigen. Put plainly: sandwich EIA, 25 ng/ml core1-169; capture mAb C11-7.
For B1, the OD492 nm was 2.47 OD492.
Still for that read-out and setting: as for B2, the figure is 0.89 OD492; as for B3, 1.52 OD492; as for B4, 2.87 OD492.
B5: the OD492 nm came to 1.06 OD492.
The same measure, in the same setting: as for B6, the figure is 2.92 OD492.
Regarding B7, the OD492 nm was 0.22 OD492.

The next assay has the same target. Put plainly: sandwich EIA, 25 ng/ml core1-169; capture mAb 208A-692.
Regarding B1, the OD492 nm stood at 0.42 OD492.
As to B2, the OD492 nm was determined as 0.15 OD492.
On the same count and under the same terms, as for B3, the figure is 0.18 OD492; as for B4, 0.34 OD492.
Still for that read-out and setting: the same measure for B5: 0.15 OD492; for B6: 0.35 OD492; for B7: 0.13 OD492.

The target is the same in the next assay. Kind of assay: sandwich EIA, 25 ng/ml core1-169; capture mAb 208A-557.
In the case of B1, the OD492 nm came to 0.82 OD492.
Still for that read-out and setting: as for B2, the figure is 0.21 OD492.
Same read-out and setting: as for B3, the figure is 0.23 OD492; as for B4, 0.52 OD492; as for B5, 0.17 OD492.
Turning to B6, the OD492 nm turned out to be 0.53 OD492.
On the same count and under the same terms, the same measure for B7: 0.32 OD492.

Another assay addresses T2, C113T110N biotin labeled HCV core …. Kind of assay: EIA, captured mAb + biotin peptide.
With B8, the binding result was “no binding”.

Another assay has as its target T3, C113WT biotin labeled HCV core peptide. Put plainly: EIA, captured mAb + biotin peptide.
With B8, the binding result is “no binding”.

In a further assay the target is T1, HCV Core1-169 recombinant antigen. Kind of assay: sandwich EIA, 25 ng/ml core1-169; capture mAb 208A-293.
Take B1: the OD492 nm came to 0.42 OD492.
With B2, the OD492 nm came out at 0.26 OD492.
With B3, the OD492 nm amounted to 0.28 OD492.
Same read-out and setting: as for B4, the figure is 0.49 OD492.
As for B5, the OD492 nm came to 0.24 OD492.
Regarding B6, the OD492 nm came to 0.51 OD492.
With B7, the OD492 nm amounted to 0.41 OD492.

The next assay shares this target. Put plainly: sandwich EIA, 25 ng/ml core1-169; capture mAb 208B-1096.
As for B1, the OD492 nm amounted to 0.33 OD492.
With B2, the OD492 nm worked out at 0.23 OD492.
On the same count and under the same terms, the same measure for B3: 0.7 OD492.
Still for that read-out and setting: as for B4, the figure is 0.41 OD492.
B5: the OD492 nm turned out to be 0.26 OD492.
B6: the OD492 nm came to 0.38 OD492.
Consider B7, for which the OD492 nm is 0.35 OD492.

The next assay shares this target. Put plainly: sandwich EIA, 25 ng/ml core1-169; capture mAb 208A-207-271.
In the case of B1, the OD492 nm turned out to be 0.36 OD492.
For the molecule B2, the OD492 nm came out at 0.2 OD492.
Take B3: the OD492 nm came out at 0.24 OD492.
Still for that read-out and setting: the same measure for B4: 0.39 OD492; for B5: 0.18 OD492.
On the same count and under the same terms, as for B6, the figure is 0.39 OD492; as for B7, 0.18 OD492.

A further assay has the same target. Put plainly: sandwich EIA, 25 ng/ml core1-169; capture mAb 208A-110.
With B1, the OD492 nm came to 0.38 OD492.
Same read-out and setting: the same measure for B2: 0.21 OD492; for B3: 0.26 OD492.
For B4, the OD492 nm was found to be 0.52 OD492.
Still for that read-out and setting: the same measure for B5: 0.19 OD492.
Regarding B6, the OD492 nm is 0.54 OD492.
Consider B7, for which the OD492 nm was 0.44 OD492.

The target is the same in a further assay. Put plainly: sandwich EIA, 25 ng/ml core1-169; capture mAb 208B-741.
B1: the OD492 nm came to 0.3 OD492.
On the same count and under the same terms, as for B2, the figure is 0.21 OD492; as for B3, 0.23 OD492; as for B4, 0.5 OD492.
Same read-out and setting: the same measure for B5: 0.23 OD492; for B6: 0.44 OD492.
Same read-out and setting: as for B7, the figure is 0.38 OD492.

A further assay shares this target. Put plainly: sandwich EIA, 25 ng/ml core1-169; capture NC capture mAb.
For B1, the OD492 nm came out at 0.37 OD492.
For the molecule B2, the OD492 nm stood at 0.2 OD492.
With B3, the OD492 nm came to 0.21 OD492.
As to B4, the OD492 nm stood at 0.37 OD492.
Same read-out and setting: the same measure for B5: 0.17 OD492; for B6: 0.4 OD492; for B7: 0.18 OD492.

For the next assay the target is unchanged. Put plainly: sandwich EIA, 25 ng/ml core1-169; capture mAb C11-9.
As to B1, the OD492 nm amounted to 2.2 OD492.
Still for that read-out and setting: as for B2, the figure is 0.32 OD492; as for B3, 0.64 OD492; as for B4, 2.6 OD492.
Same read-out and setting: as for B5, the figure is 0.33 OD492; as for B6, 2.66 OD492; as for B7, 0.14 OD492.

For another assay the target is unchanged. Kind of assay: sandwich EIA, 25 ng/ml core1-169; capture mAb 208B-612-226.
B1: the OD492 nm was 0.33 OD492.
On the same count and under the same terms, the same measure for B2: 0.26 OD492.
Still for that read-out and setting: the same measure for B3: 0.23 OD492; for B4: 0.37 OD492; for B5: 0.24 OD492.
Same read-out and setting: as for B6, the figure is 0.37 OD492; as for B7, 0.25 OD492.

For a further assay the target is unchanged. Kind of assay: sandwich EIA, 25 ng/ml core1-169; capture mAb 208B-395-334.
Regarding B1, the OD492 nm worked out at 0.37 OD492.
On to B2, for which the OD492 nm stood at 0.23 OD492.
Still for that read-out and setting: the same measure for B3: 0.83 OD492; for B4: 0.44 OD492.
On the same count and under the same terms, as for B5, the figure is 0.2 OD492; as for B6, 0.44 OD492.
The same measure, in the same setting: the same measure for B7: 0.28 OD492.
